Source: PMC4571291, “How Leiomodin and Tropomodulin use a common fold for different actin assembly functions” (Nature Communications, 2015)

Molecular target: actin (UniProt P68135 1-377)
Assay: ITC; Tmod or Lmod construct in the syringe titrated into LatB-actin in the cell (LatB:actin 1.2:1); 20 mM HEPES pH 7.5, 100 mM NaCl, 0.2 mM ATP, 1 mM DTT; temperature and concentrations listed in the figures
Settings: both partners purified

Row | stoichiometry N | Binder
1 | 2 | TL2_(ABS2) (domain or fragment, human tropomodulin 1 residues 164-229; The junction was made with a silent NruI site; cloned in vector pTYB1; also called Tmod1-Lmod2 ABS2 hybrid construct) VIKPTQYKPVPDEEPNSTDVEETLERIKNNDPKLEEVNLNNIRNIPIPTLKAYAEALKENSYVKKFSLANTHADDSAAMAIAEMLKVNEHITNVNVESNFITGKGILAIMRALQHNTVLTELRFHNQRHIMGSQVEMEIVKLLKENTTLLRLGYHFELPGPRMSMTSILTRNMDKQRQKRLQEQKQQE
2 | 2 | Lmod2_(ABS2) (domain or fragment, the limits 180-367 are printed for the construct of the same name made for cell expression; Cloned in vector pTYB1; also called isolated ABS2 of Lmod2) NGRNTESPAAIHPCGNPTVIEDALDKIKSNDPDTTEVNLNNIENITTQTLTRFAEALKDNTVVKTFSLANTHADDSAAMAIAEMLKVNEHITNVNVESNFITGKGILAIMRALQHNTVLTELRFHNQRHIMGSQVEMEIVKLLKENTTLLRLGYHFELPGPRMSMTSILTRNMDKQRQKRLQEQKQQE
3 | 2 | TL1_(ABS2) (domain or fragment, human tropomodulin 1 residues 164-229; human leiomodin 1 residues 365-486; The junction was made with a silent NruI site; cloned in vector pTYB1; also called Tmod1-Lmod1 ABS2 hybrid construct) VIKPTQYKPVPDEEPNSTDVEETLERIKNNDPKLEEVNLNNIRNIPIPTLKAYAEALKENSYVKKFALANTRADDHVAFAIAIMLKANKTITSLNLDSNHITGKGILAIFRALLQNNTLTELRFHNQRHICGGKTEMEIAKLLKENTTLLKLGYHFELAGPRMTVTNLLSRNMDKQRQKRLQEQRQAQ
